Results as given in the Immune Epitope Database (IEDB).
Each block holds one sequence with its values, some of them ahead of it.

Experiments:
HLA-A*01:01 = assay: IEDB peptide-MHC binding, purified MHC/direct/fluorescence; filed as Kd, often an IC50 or EC50 that approximates it; ≥ and ≤ were set here for values at or beyond the usual limits of such assays
HLA-B*58:01 [1] = assay: as above
HLA-A*03:01 = assay: as above
HLA-A*24:03 = assay: as above
HLA-A*26:01 = assay: as above
HLA-A*31:01 = assay: as above
HLA-B*44:02 = assay: as above
HLA-A*30:01 = assay: as above
HLA-B*35:01 = assay: as above
HLA-A*02:01 [2] = assay: as above
HLA-B*08:01 = assay: as above
HLA-A*69:01 = assay: as above
HLA-B*15:01 [3] = assay: as above
HLA-B*40:01 [4] = assay: as above
HLA-B*27:05 = assay: as above
HLA-B*07:02 = assay: as above
HLA-A*11:01 = assay: as above
HLA-B*39:01 = assay: IEDB peptide-MHC binding, purified MHC/competitive/fluorescence; filed as Kd, often an IC50 or EC50 that approximates it; ≥ and ≤ were set here for values at or beyond the usual limits of such assays
HLA-B*40:01 [5] = assay: as above
HLA-A*02:01 [6] = assay: IEDB peptide-MHC binding, purified MHC/competitive/fluorescence; ≥ and ≤ were set here for values at or beyond the usual limits of such assays; conditions: source organism: Zaire ebolavirus
HLA-B*15:01 [7] = assay: as above; conditions: source organism: Zaire ebolavirus
HLA-B*58:01 [8] = assay: IEDB peptide-MHC binding, purified MHC/competitive/fluorescence; filed as Kd, often an IC50 or EC50 that approximates it; ≥ and ≤ were set here for values at or beyond the usual limits of such assays
HLA-A*23:01 = assay: IEDB peptide-MHC binding, purified MHC/direct/fluorescence; filed as Kd, often an IC50 or EC50 that approximates it; ≥ and ≤ were set here for values at or beyond the usual limits of such assays; conditions: source organism: Orthohantavirus hantanense
[9] = source organism: Vibrio cholerae
[10] = source organism: Vibrio parahaemolyticus
[11] = source organism: Salmonella enterica subsp. enterica serovar Typhi
[12] = source organism: Giardia lamblia ATCC 50803
[13] = source organism: Escherichia coli 101-1
[14] = source organism: Corynebacterium glutamicum

Sequence: IPISGRITA
Kd (HLA-A*01:01; [9]): ≥ 20 µM
Kd (HLA-B*58:01 [1]; [9]): ≥ 20 µM
Kd (HLA-A*03:01; [9]): ≥ 20 µM
Kd (HLA-A*24:03; [9]): ≥ 20 µM
Kd (HLA-A*26:01; [9]): ≥ 20 µM
Kd (HLA-A*31:01; [9]): ≥ 20 µM
Kd (HLA-B*44:02; [9]): ≥ 20 µM
Kd (HLA-A*30:01; [9]): ≥ 20 µM
Kd (HLA-B*35:01; [9]): 0.0172 µM
Kd (HLA-A*02:01 [2]; [9]): ≥ 20 µM
Kd (HLA-B*08:01; [9]): ≥ 20 µM
Kd (HLA-A*69:01; [9]): ≥ 20 µM
Kd (HLA-B*15:01 [3]; [9]): ≥ 20 µM
Kd (HLA-B*40:01 [4]; [9]): ≥ 20 µM
Kd (HLA-B*27:05; [9]): ≥ 20 µM
Kd (HLA-B*07:02; [9]): 0.0244 µM
Kd (HLA-A*11:01; [9]): ≥ 20 µM

Sequence: RTHTLRDAK
Kd (HLA-A*01:01; [10]): ≥ 20 µM
Kd (HLA-B*58:01 [1]; [10]): ≥ 20 µM
Kd (HLA-A*03:01; [10]): 0.93 µM
Kd (HLA-A*24:03; [10]): 0.472 µM
Kd (HLA-A*26:01; [10]): ≥ 20 µM
Kd (HLA-A*31:01; [10]): 0.134 µM
Kd (HLA-A*30:01; [10]): 0.0209 µM
Kd (HLA-A*02:01 [2]; [10]): ≥ 20 µM
Kd (HLA-B*08:01; [10]): ≥ 20 µM
Kd (HLA-A*69:01; [10]): ≥ 20 µM
Kd (HLA-B*40:01 [4]; [10]): ≥ 20 µM
Kd (HLA-B*27:05; [10]): ≥ 20 µM
Kd (HLA-B*07:02; [10]): ≥ 20 µM
Kd (HLA-A*11:01; [10]): 0.0535 µM

Sequence: HEAEYNLSL
Kd (HLA-B*39:01; [11]): 0.0019 µM
Kd (HLA-B*40:01 [5]; [11]): 0.0046 µM

Sequence: AIPYFYKGK
Kd (HLA-A*01:01; [12]): ≥ 20 µM
Kd (HLA-B*58:01 [1]; [12]): ≥ 20 µM
Kd (HLA-A*03:01; [12]): ≥ 20 µM
Kd (HLA-A*24:03; [12]): 13 µM
Kd (HLA-A*26:01; [12]): ≥ 20 µM
Kd (HLA-B*44:02; [12]): ≥ 20 µM
Kd (HLA-A*30:01; [12]): 12.5 µM
Kd (HLA-A*02:01 [2]; [12]): ≥ 20 µM
Kd (HLA-B*08:01; [12]): ≥ 20 µM
Kd (HLA-A*69:01; [12]): ≥ 20 µM
Kd (HLA-B*15:01 [3]; [12]): ≥ 20 µM
Kd (HLA-B*40:01 [4]; [12]): ≥ 20 µM
Kd (HLA-B*27:05; [12]): ≥ 20 µM
Kd (HLA-B*07:02; [12]): ≥ 20 µM
Kd (HLA-A*11:01; [12]): 0.308 µM

Sequence: QLIIQAFEA
IC50 (HLA-A*02:01 [6]): 0.884 µM
IC50 (HLA-B*15:01 [7]): ≥ 720 µM

Sequence: MSLMTGEQF
Kd (HLA-B*58:01 [8]; source organism: Bacillus anthracis str. A0488): 0.0165 µM

Sequence: RTRFFCIPK
Kd (HLA-A*01:01; [12]): ≥ 20 µM
Kd (HLA-B*58:01 [1]; [12]): ≥ 20 µM
Kd (HLA-A*03:01; [12]): 0.0273 µM
Kd (HLA-A*24:03; [12]): ≥ 20 µM
Kd (HLA-A*26:01; [12]): ≥ 20 µM
Kd (HLA-A*31:01; [12]): 0.0182 µM
Kd (HLA-B*44:02; [12]): ≥ 20 µM
Kd (HLA-A*30:01; [12]): 0.00137 µM
Kd (HLA-A*02:01 [2]; [12]): 17.4 µM
Kd (HLA-B*08:01; [12]): ≥ 20 µM
Kd (HLA-A*69:01; [12]): ≥ 20 µM
Kd (HLA-B*15:01 [3]; [12]): ≥ 10 µM
Kd (HLA-B*40:01 [4]; [12]): ≥ 20 µM
Kd (HLA-B*27:05; [12]): 0.321 µM
Kd (HLA-B*07:02; [12]): ≥ 20 µM
Kd (HLA-A*11:01; [12]): 0.0209 µM

Sequence: IASLTGWQW
Kd (HLA-B*15:01 [3]; source organism: Mycobacterium tuberculosis str. Haarlem): 16 µM
Kd (HLA-B*58:01 [8]; source organism: Mycobacterium tuberculosis variant bovis BCG str. Pasteur 1173P2): 0.0006 µM

Kd (HLA-B*39:01; [13]): 3.82 µM
Kd (HLA-B*40:01 [5]; [13]): 0.0097 µM
Sequence: FEANALSVI

Sequence: FFQNETQKY
Kd (HLA-A*24:03; source organism: Orthohantavirus hantanense): 1.3 µM
Kd (HLA-A*23:01): 1.4 µM

Kd (HLA-A*01:01; [14]): ≥ 20 µM
Kd (HLA-B*58:01 [1]; [14]): ≥ 20 µM
Kd (HLA-A*03:01; [14]): ≥ 20 µM
Kd (HLA-A*24:03; [14]): ≥ 20 µM
Kd (HLA-A*26:01; [14]): ≥ 20 µM
Kd (HLA-A*31:01; [14]): ≥ 20 µM
Kd (HLA-A*30:01; [14]): ≥ 20 µM
Kd (HLA-B*35:01; [14]): 0.777 µM
Kd (HLA-A*02:01 [2]; [14]): ≥ 20 µM
Kd (HLA-B*08:01; [14]): ≥ 20 µM
Kd (HLA-A*69:01; [14]): ≥ 20 µM
Kd (HLA-B*15:01 [3]; [14]): 0.443 µM
Kd (HLA-B*40:01 [4]; [14]): 14.3 µM
Kd (HLA-B*27:05; [14]): ≥ 20 µM
Kd (HLA-A*11:01; [14]): ≥ 20 µM
Sequence: YELLRYNEY

Kd (HLA-B*40:01 [5]; source organism: Escherichia coli O139:H28 str. E24377A): ≥ 20 µM
Sequence: GEVRGYLVK

Sequence: VETYVLSII
Kd (HLA-B*40:01 [5]; source organism: Influenza A virus (A/parakeet/Chiba/1/97(H9N2))): 0.013 µM
